Drawing on patent US20240124563A1 (NANJING ZAIMING PHARMACEUTICAL, published 2024), this text covers OD450 nm and MFI for four molecules.

The target in experiment [1] is T1, human MSLN-R3-his protein (human, UniProt Q13421 487-598).
T1 construct: MSLN-R3 = Met487-Ser598; also called hMSLN-R3-his; not shown: histidine tag
Description: ELISA, antibody 100 nM. (In general: ELISA stands for enzyme-linked immunosorbent assay.)

The target of experiment [2] is T1, human MSLN-R3-his protein. Description: ELISA, antibody 0.1 nM.
For experiment [3], the target named is T2, human MSLN-R2-his protein (human, UniProt Q13421 391-486).
T2 construct: MSLN-R2 = Ser391-Asn486; also called hMSLN-R2-his; not shown: histidine tag
Description: ELISA, antibody 100 nM.

Experiment [4] has as its target T1, human MSLN-R3-his protein. Description: ELISA, antibody 10 nM.
The target in experiment [5] is T1, human MSLN-R3-his protein. Description: ELISA, antibody 0.001 nM.
Experiment [6] concerns the target T3, human MSLN-R3-3 polypeptide (purchased from GL Biochem, Cat. No. 406676) (human).
T3 construct: Printed as Val539-Val588; also called hMSLN-R3-3
T3 peptide: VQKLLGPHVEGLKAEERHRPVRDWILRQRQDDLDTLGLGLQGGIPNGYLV
Description: ELISA, antibody 1 nM.

For experiment [7], the target named is T1, human MSLN-R3-his protein. Description: ELISA, antibody 1 nM.
In experiment [8] the target is T2, human MSLN-R2-his protein. Description: ELISA, antibody 1 nM.
The target in experiment [9] is T2, human MSLN-R2-his protein. Description: ELISA, antibody 10 nM.
In experiment [10] the target is T2, human MSLN-R2-his protein. Description: ELISA, antibody 0.0001 nM.
Experiment [11] addresses T2, human MSLN-R2-his protein. Description: ELISA, antibody 0.001 nM.
For experiment [12], the target named is T2, human MSLN-R2-his protein. Description: ELISA, antibody 0.01 nM.
In experiment [13] the target is T2, human MSLN-R2-his protein. Description: ELISA, antibody 0 nM (blank).
Experiment [14] addresses T1, human MSLN-R3-his protein. Description: ELISA, antibody 0.0001 nM.
The target in experiment [15] is T1, human MSLN-R3-his protein. Description: ELISA, antibody 1 nM. The source holds these as a separate data set.
In experiment [16] the target is T1, human MSLN-R3-his protein. Description: ELISA, antibody 0 nM (blank).
For experiment [17], the target named is T2, human MSLN-R2-his protein. Description: ELISA, antibody 0.1 nM.
In experiment [18] the target is T2, human MSLN-R2-his protein. Description: ELISA, antibody 1 nM. The source holds these as a separate data set.
Experiment [19] concerns the target T1, human MSLN-R3-his protein. Description: ELISA, antibody 0.01 nM.
The target in experiment [20] is T4, human MSLN-R3-his protein (human, UniProt Q13421 487-598).
T4 construct: also called hMSLN-R3-his; not shown: histidine tag
Description: ELISA, coated antigen, 100 nM antibody.

In experiment [21] the target is T4, human MSLN-R3-his protein. Description: ELISA, coated antigen, 0.001 nM antibody.
For experiment [22], the target named is T4, human MSLN-R3-his protein. Description: ELISA, coated antigen, 1 nM antibody.
Experiment [23] addresses T4, human MSLN-R3-his protein. Description: ELISA, coated antigen, 0 nM antibody (blank).
The target in experiment [24] is T4, human MSLN-R3-his protein. Description: ELISA, coated antigen, 10 nM antibody.
Experiment [25] concerns the target T4, human MSLN-R3-his protein. Description: ELISA, coated antigen, 0.0001 nM antibody.
For experiment [26], the target named is T4, human MSLN-R3-his protein. Description: ELISA, coated antigen, 0.1 nM antibody.
The target of experiment [27] is T4, human MSLN-R3-his protein. Description: ELISA, coated antigen, 0.2 nM antibody.
The target of experiment [28] is T5, human MSLN-R2-his protein (human, UniProt Q13421 391-486).
T5 construct: also called hMSLN-R2-his; not shown: histidine tag
Description: ELISA, coated antigen, 0.2 nM antibody.

For experiment [29], the target named is T4, human MSLN-R3-his protein. Description: ELISA, coated antigen, 20 nM antibody.
Experiment [30] addresses T5, human MSLN-R2-his protein. Description: ELISA, coated antigen, 20 nM antibody.
For experiment [31], the target named is T4, human MSLN-R3-his protein. Description: ELISA, coated antigen, 0.01 nM antibody.
The target of experiment [32] is T6, chimeric human MSLN-R3 / chicken MSLN-R1-2 protein on HEK293T cells (clone A5) (chicken; human).
T6 construct: range 327-514; Human R1-R2 replaced by chicken R1-R2; also called HEK293T-chickR1-2/hR3-A5; HEK293T-hR3/chickR1-2-A5
Description: FACS, HEK293T-hR3/chickR1-2-A5 cells, antibody 0.2 nM. In general terms: A flow cytometer gives signals particle by particle.

Experiment [33] deals with T6, chimeric human MSLN-R3 / chicken …. Description: FACS, HEK293T-hR3/chickR1-2-A5 cells, antibody 20 nM.

T6 sequence (Q13421 495-614, change not shown): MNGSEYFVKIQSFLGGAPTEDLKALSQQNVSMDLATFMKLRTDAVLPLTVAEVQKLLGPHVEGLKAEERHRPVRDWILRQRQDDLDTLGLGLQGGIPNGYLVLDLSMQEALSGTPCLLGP

B1: Tab020 (YP223, rabbitIgG1) (antibody, V domains shown)
VH: QEQLEESGGDLVQPEGSLTLTCKASGLDFSSSYWICWVRQAPGKGLEWIGCRHTFTANTWSASWVNGRFTISRSTSLGTVDLKMTSLTAADTATYFCARDESNNDGWDFKLWGPGTLVTVSS
VL: AYDMTQTPASVSAAVGGTVTIKCQASQSISNYLAWYQQKPGQPPKLLIYQASTLAPGVSSRFKGSGSGTEFTLTISGVECADAATYYCQQGYTSSNVENVFGGGTGVVVGD
notes: also called YP223 rabbit IgG1 antibody; rabbit anti-human MSLN antibody (Tab020)
For B1, the OD450 nm came to 0.05 in experiment [1]; 0.05 in experiment [2]; 2.5 in [3]; 0.05 in experiment [4]; 0.05 in [5]; 0.09 in experiment [6]. For the same molecule, the OD450 nm in experiment [7] is 0.05; in [8], 1.49; in [9] it was 2.01; in [10] it was 0.05; in experiment [11], 0.05; in [12], 0.07. For the same molecule, the OD450 nm in experiment [13] turned out to be 0.05; in experiment [14], 0.05; in experiment [15], 0.05; in [16], 0.05; in [17], 0.2; in [18], 1.49. Further, in experiment [19], the OD450 nm worked out at 0.05.

B2: Tab106 (YP218, hIgG1) (antibody, V domains shown)
VH: QQQLEESGGGLVKPEGSLTLTCKASGFDLGFYFYACWVRQAPGKGLEWIACIYTAGSGSTYYASWAKGRFTISKASSTTVTLQMTSLAAADTATYFCARSTANTRSTYYLNLWGPGTLVTVSS
VL: DVVMTQTPASVSEPVGGTVTIKCQASQRISSYLSWYQQKPGQRPKLLIFGASTLASGVPSRFKGSGSGTEYTLTISDLECADAATYYCQSYAYFDSNNWHAFGGGTEVVVRT
notes: also called YP218 human IgG1 antibody
As to B2, the OD450 nm in experiment [20] was 1.81 OD450 nm; in experiment [21] it was 0.05 OD450 nm; in experiment [22], 0.22 OD450 nm; in experiment [23] it was 0.05 OD450 nm; in [24], 1.04 OD450 nm; in experiment [25], 0.05 OD450 nm. Also, the OD450 nm was determined as 0.07 OD450 nm in experiment [26]; 0.87 OD450 nm in experiment [27]; 0.13 OD450 nm in [28]; 1.89 OD450 nm in [29]; 1.44 OD450 nm in [30]; 0.05 OD450 nm in experiment [31].

B3: Tab106 (YP218, hIgG1) (antibody, V domains shown)
VH: QQQLEESGGGLVKPEGSLTLTCKASGFDLGFYFYACWVRQAPGKGLEWIACIYTAGSGSTYYASWAKGRFTISKASSTTVTLQMTSLAAADTATYFCARSTANTRSTYYLNLWGPGTLVTVSS
VL: DVVMTQTPASVSEPVGGTVTIKCQASQRISSYLSWYQQKPGQRPKLLIFGASTLASGVPSRFKGSGSGTEYTLTISDLECADAATYYCQSYAYFDSNNWHAFGGGTEVVVRT
notes: as for B2
As for B3, the MFI was 767 in experiment [32] and 17900 in experiment [33].

B4: Tab106 (YP218, hIgG1) (antibody, V domains shown)
VH: QQQLEESGGGLVKPEGSLTLTCKASGFDLGFYFYACWVRQAPGKGLEWIACIYTAGSGSTYYASWAKGRFTISKASSTTVTLQMTSLAAADTATYFCARSTANTRSTYYLNLWGPGTLVTVSS
VL: DVVMTQTPASVSEPVGGTVTIKCQASQRISSYLSWYQQKPGQRPKLLIFGASTLASGVPSRFKGSGSGTEYTLTISDLECADAATYYCQSYAYFDSNNWHAFGGGTEVVVRT
notes: also called YP218 human IgG1 antibody; anti-human MSLN-R3 antibody (Tab106)
As to B4, the OD450 nm was 2.29 in experiment [1]; 0.12 in [2]; 0.7 in experiment [3]; 1.75 in [4]; 0.05 in [5]; 0.98 in [6]. Besides, the OD450 nm in [7] is 0.62; in experiment [8], 0.05; in [9], 0.11; in [10], 0.04; in experiment [11] it was 0.04; in [12] it was 0.04. The OD450 nm was 0.05 in [13]; 0.05 in experiment [14]; 0.62 in experiment [15]; 0.05 in experiment [16]; 0.05 in [17]; 0.05 in [18]. In experiment [19], this molecule yielded an OD450 nm of 0.06.
